In publication PMC10786891, “Massively parallel profiling of RNA-targeting CRISPR-Cas13d”:

Target: T1, EsCas13d, nuclease-dead (Eubacterium siraeum, UniProt B0MS50, R295A;H300A;R849A;H854A)
T1 sequence: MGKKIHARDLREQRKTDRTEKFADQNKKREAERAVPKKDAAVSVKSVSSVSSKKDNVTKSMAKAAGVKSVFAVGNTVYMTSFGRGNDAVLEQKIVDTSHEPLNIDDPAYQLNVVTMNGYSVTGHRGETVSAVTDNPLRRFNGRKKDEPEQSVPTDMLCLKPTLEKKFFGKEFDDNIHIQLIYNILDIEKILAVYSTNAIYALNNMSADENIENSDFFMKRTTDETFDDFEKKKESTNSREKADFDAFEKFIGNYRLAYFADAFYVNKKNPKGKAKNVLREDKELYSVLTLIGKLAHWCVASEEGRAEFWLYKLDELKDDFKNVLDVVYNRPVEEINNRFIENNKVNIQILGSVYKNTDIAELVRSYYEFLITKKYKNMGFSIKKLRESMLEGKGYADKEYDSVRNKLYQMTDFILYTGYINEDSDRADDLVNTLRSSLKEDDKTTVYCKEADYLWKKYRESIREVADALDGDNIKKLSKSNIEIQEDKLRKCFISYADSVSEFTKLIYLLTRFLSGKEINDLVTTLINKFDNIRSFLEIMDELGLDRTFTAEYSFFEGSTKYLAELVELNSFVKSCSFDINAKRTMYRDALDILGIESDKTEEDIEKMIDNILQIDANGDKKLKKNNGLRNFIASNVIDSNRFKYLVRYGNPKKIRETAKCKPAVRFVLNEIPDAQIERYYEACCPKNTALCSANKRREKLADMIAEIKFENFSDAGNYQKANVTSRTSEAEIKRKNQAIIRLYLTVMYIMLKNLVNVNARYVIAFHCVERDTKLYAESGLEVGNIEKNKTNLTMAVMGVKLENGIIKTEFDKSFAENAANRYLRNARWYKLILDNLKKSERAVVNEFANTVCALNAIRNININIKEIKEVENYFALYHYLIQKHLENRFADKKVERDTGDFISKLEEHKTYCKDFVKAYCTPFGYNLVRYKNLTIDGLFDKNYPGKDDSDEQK
Experiment: crRNA (strand 1, pre-loaded); Mg2+; 40 mM Tris-HCl pH 7.5, 150 mM NaCl, 6 mM MgCl2, 1 mM DTT, 0.1% Tween-20, 0.2 mg/ml BSA; 25 C; 10 min per concentration, then washed
Settings: tags: His6-TwinStrep-SUMO cleaved; N-terminal SNAP kept (SNAP-Surface 488); label: 3' end held by stalled T7 RNA polymerase

B1: target 1 G17C,A18G (mixed)
RNA 1: CACCCGUGCAAAAAUGCAGGGGUCUAAAACUGAGCGGAUAACCUCUCUAUGG
RNA 2: GGGAAUGGAUCCACAUCUACGAAUUCGUACCAUGCAGAGGUUAUCCGCUCACCGAGAUCGGAAGAGCACACGU
  Kd: ~90 nM

B2: target 1 A14U,A16C (mixed)
RNA 1: CACCCGUGCAAAAAUGCAGGGGUCUAAAACUGAGCGGAUAACCUCUCUAUGG
RNA 2: GGGAAUGGAUCCACAUCUACGAAUUCGUACCAUAGCGUGGUUAUCCGCUCACCGAGAUCGGAAGAGCACACGU
  Kd: 100 ± 40 nM

B3: target 1 insU 3' of 12,insU 3' of 1 (mixed)
RNA 1: CACCCGUGCAAAAAUGCAGGGGUCUAAAACUGAGCGGAUAACCUCUCUAUGG
RNA 2: GGGAAUGGAUCCACAUCUACGAAUUCGUACCAUAGAGAGGUUUAUCCGCUCAUCCGAGAUCGGAAGAGCACACGU
  Kd: 8.23 ± 0.33 nM

B4: target 2 MT 5'PFS UUC 3'PFS CAC (mixed)
RNA 1: CACCCGUGCAAAAUUGCAGGGGUCUAAAACCUUCUCCAAAUUGUUUCAUCCU
RNA 2: GGGAAUGGAUCCACAUCUACGAAUUCUUCAGGAUGAAACAAUUUGGAGAAGCACAGAUCGGAAGAGCACACGU
  Kd: 13 ± 4 nM

B5: target 2 MT 5'PFS CAA 3'PFS CUC (mixed)
RNA 1: CACCCGUGCAAAAUUGCAGGGGUCUAAAACCUUCUCCAAAUUGUUUCAUCCU
RNA 2: GGGAAUGGAUCCACAUCUACGAAUUCCAAAGGAUGAAACAAUUUGGAGAAGCUCAGAUCGGAAGAGCACACGU
  Kd: 5.3 ± 2.1 nM

B6: target 2 MT 5'PFS CAG 3'PFS UUC (mixed)
RNA 1: CACCCGUGCAAAAUUGCAGGGGUCUAAAACCUUCUCCAAAUUGUUUCAUCCU
RNA 2: GGGAAUGGAUCCACAUCUACGAAUUCCAGAGGAUGAAACAAUUUGGAGAAGUUCAGAUCGGAAGAGCACACGU
  Kd: 19 ± 8 nM

B7: target 2 MT 5'PFS UGA 3'PFS AAC (mixed)
RNA 1: CACCCGUGCAAAAUUGCAGGGGUCUAAAACCUUCUCCAAAUUGUUUCAUCCU
RNA 2: GGGAAUGGAUCCACAUCUACGAAUUCUGAAGGAUGAAACAAUUUGGAGAAGAACAGAUCGGAAGAGCACACGU
  Kd: 10.1 ± 2.4 nM

B8: target 2 MT 5'PFS UGA 3'PFS AAU (mixed)
RNA 1: CACCCGUGCAAAAUUGCAGGGGUCUAAAACCUUCUCCAAAUUGUUUCAUCCU
RNA 2: GGGAAUGGAUCCACAUCUACGAAUUCUGAAGGAUGAAACAAUUUGGAGAAGAAUAGAUCGGAAGAGCACACGU
  Kd: 6.2 ± 0.8 nM

B9: target 2 MT 5'PFS AAA 3'PFS ACA (mixed)
RNA 1: CACCCGUGCAAAAUUGCAGGGGUCUAAAACCUUCUCCAAAUUGUUUCAUCCU
RNA 2: GGGAAUGGAUCCACAUCUACGAAUUCAAAAGGAUGAAACAAUUUGGAGAAGACAAGAUCGGAAGAGCACACGU
  Kd: 7.8 ± 2.2 nM

B10: target 2 MT 5'PFS UGA 3'PFS AAG (mixed)
RNA 1: CACCCGUGCAAAAUUGCAGGGGUCUAAAACCUUCUCCAAAUUGUUUCAUCCU
RNA 2: GGGAAUGGAUCCACAUCUACGAAUUCUGAAGGAUGAAACAAUUUGGAGAAGAAGAGAUCGGAAGAGCACACGU
  Kd: 7.4 ± 0.9 nM

B11: target 2 MT 5'PFS AAA 3'PFS ACC (mixed)
RNA 1: CACCCGUGCAAAAUUGCAGGGGUCUAAAACCUUCUCCAAAUUGUUUCAUCCU
RNA 2: GGGAAUGGAUCCACAUCUACGAAUUCAAAAGGAUGAAACAAUUUGGAGAAGACCAGAUCGGAAGAGCACACGU
  Kd: 9.2 ± 2.8 nM

B12: target 2 MT 5'PFS UCA 3'PFS UAU (mixed)
RNA 1: CACCCGUGCAAAAUUGCAGGGGUCUAAAACCUUCUCCAAAUUGUUUCAUCCU
RNA 2: GGGAAUGGAUCCACAUCUACGAAUUCUCAAGGAUGAAACAAUUUGGAGAAGUAUAGAUCGGAAGAGCACACGU
  Kd: 5.1 ± 0.7 nM

B13: target 2 MT 5'PFS CAA 3'PFS CUA (mixed)
RNA 1: CACCCGUGCAAAAUUGCAGGGGUCUAAAACCUUCUCCAAAUUGUUUCAUCCU
RNA 2: GGGAAUGGAUCCACAUCUACGAAUUCCAAAGGAUGAAACAAUUUGGAGAAGCUAAGAUCGGAAGAGCACACGU
  Kd: ~5 nM

B14: target 2 MT 5'PFS AGC 3'PFS UCG (mixed)
RNA 1: CACCCGUGCAAAAUUGCAGGGGUCUAAAACCUUCUCCAAAUUGUUUCAUCCU
RNA 2: GGGAAUGGAUCCACAUCUACGAAUUCAGCAGGAUGAAACAAUUUGGAGAAGUCGAGAUCGGAAGAGCACACGU
  Kd: 14.3 ± 3.2 nM

B15: target 2 MT 5'PFS UCA 3'PFS UAC (mixed)
RNA 1: CACCCGUGCAAAAUUGCAGGGGUCUAAAACCUUCUCCAAAUUGUUUCAUCCU
RNA 2: GGGAAUGGAUCCACAUCUACGAAUUCUCAAGGAUGAAACAAUUUGGAGAAGUACAGAUCGGAAGAGCACACGU
  Kd: 5.7 ± 0.9 nM

B16: target 2 MT 5'PFS AGC 3'PFS UCA (mixed)
RNA 1: CACCCGUGCAAAAUUGCAGGGGUCUAAAACCUUCUCCAAAUUGUUUCAUCCU
RNA 2: GGGAAUGGAUCCACAUCUACGAAUUCAGCAGGAUGAAACAAUUUGGAGAAGUCAAGAUCGGAAGAGCACACGU
  Kd: 27 ± 10 nM

B17: target 2 MT 5'PFS UGA 3'PFS AAA (mixed)
RNA 1: CACCCGUGCAAAAUUGCAGGGGUCUAAAACCUUCUCCAAAUUGUUUCAUCCU
RNA 2: GGGAAUGGAUCCACAUCUACGAAUUCUGAAGGAUGAAACAAUUUGGAGAAGAAAAGAUCGGAAGAGCACACGU
  Kd: 9 ± 2.9 nM

B18: target 2 MT 5'PFS AGC 3'PFS UCC (mixed)
RNA 1: CACCCGUGCAAAAUUGCAGGGGUCUAAAACCUUCUCCAAAUUGUUUCAUCCU
RNA 2: GGGAAUGGAUCCACAUCUACGAAUUCAGCAGGAUGAAACAAUUUGGAGAAGUCCAGAUCGGAAGAGCACACGU
  Kd: 23 ± 4 nM

B19: target 2 MT 5'PFS AUA 3'PFS UUC (mixed)
RNA 1: CACCCGUGCAAAAUUGCAGGGGUCUAAAACCUUCUCCAAAUUGUUUCAUCCU
RNA 2: GGGAAUGGAUCCACAUCUACGAAUUCAUAAGGAUGAAACAAUUUGGAGAAGUUCAGAUCGGAAGAGCACACGU
  Kd: 13.4 ± 2.4 nM

B20: target 2 MT 5'PFS AGC 3'PFS UCU (mixed)
RNA 1: CACCCGUGCAAAAUUGCAGGGGUCUAAAACCUUCUCCAAAUUGUUUCAUCCU
RNA 2: GGGAAUGGAUCCACAUCUACGAAUUCAGCAGGAUGAAACAAUUUGGAGAAGUCUAGAUCGGAAGAGCACACGU
  Kd: 16.1 ± 2.8 nM

B21: target 2 MT 5'PFS CUC 3'PFS UGC (mixed)
RNA 1: CACCCGUGCAAAAUUGCAGGGGUCUAAAACCUUCUCCAAAUUGUUUCAUCCU
RNA 2: GGGAAUGGAUCCACAUCUACGAAUUCCUCAGGAUGAAACAAUUUGGAGAAGUGCAGAUCGGAAGAGCACACGU
  Kd: 1.98 ± 0.26 nM

B22: target 2 MT 5'PFS GGC 3'PFS CUG (mixed)
RNA 1: CACCCGUGCAAAAUUGCAGGGGUCUAAAACCUUCUCCAAAUUGUUUCAUCCU
RNA 2: GGGAAUGGAUCCACAUCUACGAAUUCGGCAGGAUGAAACAAUUUGGAGAAGCUGAGAUCGGAAGAGCACACGU
  Kd: 12.9 ± 1.3 nM

B23: target 2 MT 5'PFS UCA 3'PFS UAG (mixed)
RNA 1: CACCCGUGCAAAAUUGCAGGGGUCUAAAACCUUCUCCAAAUUGUUUCAUCCU
RNA 2: GGGAAUGGAUCCACAUCUACGAAUUCUCAAGGAUGAAACAAUUUGGAGAAGUAGAGAUCGGAAGAGCACACGU
  Kd: 3.9 ± 0.5 nM

B24: target 2 MT 5'PFS GGC 3'PFS CUC (mixed)
RNA 1: CACCCGUGCAAAAUUGCAGGGGUCUAAAACCUUCUCCAAAUUGUUUCAUCCU
RNA 2: GGGAAUGGAUCCACAUCUACGAAUUCGGCAGGAUGAAACAAUUUGGAGAAGCUCAGAUCGGAAGAGCACACGU
  Kd: 13.2 ± 1.2 nM

B25: target 2 MT 5'PFS GGC 3'PFS CUA (mixed)
RNA 1: CACCCGUGCAAAAUUGCAGGGGUCUAAAACCUUCUCCAAAUUGUUUCAUCCU
RNA 2: GGGAAUGGAUCCACAUCUACGAAUUCGGCAGGAUGAAACAAUUUGGAGAAGCUAAGAUCGGAAGAGCACACGU
  Kd: 12 ± 1.9 nM

B26: target 2 MT 5'PFS AUA 3'PFS UUA (mixed)
RNA 1: CACCCGUGCAAAAUUGCAGGGGUCUAAAACCUUCUCCAAAUUGUUUCAUCCU
RNA 2: GGGAAUGGAUCCACAUCUACGAAUUCAUAAGGAUGAAACAAUUUGGAGAAGUUAAGAUCGGAAGAGCACACGU
  Kd: 10.7 ± 1.7 nM

B27: target 2 MT 5'PFS UUC 3'PFS CAG (mixed)
RNA 1: CACCCGUGCAAAAUUGCAGGGGUCUAAAACCUUCUCCAAAUUGUUUCAUCCU
RNA 2: GGGAAUGGAUCCACAUCUACGAAUUCUUCAGGAUGAAACAAUUUGGAGAAGCAGAGAUCGGAAGAGCACACGU
  Kd: 6.5 ± 1.4 nM

B28: target 2 MT 5'PFS CUC 3'PFS UGA (mixed)
RNA 1: CACCCGUGCAAAAUUGCAGGGGUCUAAAACCUUCUCCAAAUUGUUUCAUCCU
RNA 2: GGGAAUGGAUCCACAUCUACGAAUUCCUCAGGAUGAAACAAUUUGGAGAAGUGAAGAUCGGAAGAGCACACGU
  Kd: 1.66 ± 0.33 nM
